Results from patent publication US20050154189A1 (MAXYGEN, published 2005).
Positions count from the first letter of the chain named. Each block holds one binder with its values, some of them ahead of it.

Biological target: T1, Soluble CTLA-4-Ig (human, UniProt P16410 36-161, FITC-conjugated in the two-colour FACS assays; unlabelled and detected with FITC goat anti-human IgG in the concentration-dependent assay)
T1 construct: extracellular domain; Bought from R&D Systems; also called sCTLA-4-Ig; CTLA-4-Ig Fc; not shown: Fc portion of human IgG1
T1 sequence (P16410 36-161): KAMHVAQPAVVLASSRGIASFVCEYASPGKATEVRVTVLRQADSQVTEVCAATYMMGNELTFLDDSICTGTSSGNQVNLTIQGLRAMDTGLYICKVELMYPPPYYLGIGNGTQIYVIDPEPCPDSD
Test: two-colour FACS profile on transfected cells; score of preference for CTLA-4-Ig over CD28-Ig vs WT hB7-1

B1: Round 2 CTLA4BP 5x2-f3 (ligand)
chain: VIHVTKEVKEVATLSCGHNVSVEELAQTRIYWQKEKKMVLTMMPGDMNIWPEYKNRTIFDITNNLSIVILALRPSDEGTYECVVLRYEKDAFKREHLAEVTLSVKADFPTPSISDFEIPTSNIRRIICSTSGGFPEPHLSWLENGEELNAINTTASQDPETELYTVSSKLDFNMTTNRSFVCLIKYGHLRVNQTFNWNTPKQEHFPDNLLPSWAITLISANGIFVICCLTHCFAPRCRERKSNERLRRESVRPV
- Binding Score: 0

B2: Round 2 CTLA4BP-5x2-2g (ligand)
chain: VIHVTKEVKEVATLSCGHNVSVEELAQTRIHWQKEKKMVLTMMSGDMNIWPEYKNRTIFDITNNLSIVILALRPSDEGTYECVVLKYEKDAFKREHLAEVMLSVKADFPTPSITDFEIPTSNIRRIICSTSGGFPEPHLSWLENGEELNAINTTVSQDPETELYTVSSKLDFNMTTNHSFMCLIKYGHLRVNQTFNWNTPKQEHFPDNLLPSWAITLISVNGIFVICCLTYRFAPRCRERKSNERLRRESVRPV
- Binding Score: 2

B3: Round 2 CTLA4BP-5x2-4c (ligand)
chain: VIHVTKEVKEVATLSCGLNVSVEELAQTRIYWQKEKKMVLTMMSGDMNIWPEYKNRTIFDITNNLSIVILALRPSDEGTYECVVLEYEKDAFKREHLAEVMLSVKADFPTPSISDFEIPPSNIRRIICSTSGGFPEPHLSWLENGEELNGINTTVSQDPETELYTVSSKLDFNMTTNRSFVCLIKYGHLRVNQTFNWNTPKQEHFPDNLLPSWAITLISVNGIFVICCLTYCFAPRCRERRRNERLRRESVHPV
- Binding Score: 1

B6: Round 2 CTLA4BP-5x2-3c (ligand)
chain: B2 chain with K6R, T114S, E162G, R232C, K241R, S242R, R252C
- Binding Score: 2

B7: Round 2 CTLA4BP 5x2-h11 (ligand)
chain: VIHVTKKVKEVATLSCGHNVSVEELAQTRIYWQKGKKMVLTMMSGDMNIWPECKNRTIFDITNNLSIVILALRPSDEGTYECAVLKYEKDAFKREHLAEVTLSVKADFPTPSISDFEIPTSNIRRIICSTSGGFPEPHLFWLENGEELNAINTTASQDPETELYAVSSKLDFNMTTNHSFMCLIKYGHLRVNQTFNWNTPKQEHFPDNLLPSWAITLISVNGIFVICCLTYCFAPRCRERKSNERLRRESVRPV
- Binding Score: 1

B8: Round 2 CTLA4BP 5x9-d10 (ligand)
chain: B3 chain with E35G, G150A, V155A, E160G, R178H, V181M, Y231H, V251A, H252R
- Binding Score: 1

B11: Round 2 CTLA4BP-5x2-7b (ligand)
chain: B2 chain with M101T, D107G, T120P, E160G, T176A, M181V, V220A, R232C, K241R, S242R
- Binding Score: 1

B12: Round 2 CTLA4BP 5x5-c10 (ligand)
chain: B3 chain with L18H, M101T, S114T, S140F, G150A, N152S, T165A, R178H, V181M, P200T
- Binding Score: 1

B14: Round 2 CTLA4BP 5x5-h12 (ligand)
chain: B3 chain with E7K, L18H, Y31H, E86K, G150A, E160G, N177D, E244G, H252R
- Binding Score: 1

B15: Round 2 CTLA4BP 5x3-e8 (ligand)
chain: B3 chain with L18H, M101T, P120T, S140F, G150A, T176A, R178H, R236G, H252C
- Binding Score: 1

B18: Round 2 CTLA4BP-5x2-8c (ligand)
chain: B3 chain with V4M, L18H, E86K, R94Q, S114T, S140F, G150A, T165A, R178H, V220A
- Binding Score: 2

B19: Round 2 CTLA4BP 5x3-c4 (ligand)
chain: VIHVTKEVKEVATLSCGHNVSVEELAQTRIYWQKEKKMVLTMMSGDMNIWPEYKNRTIFDITNNLSIVILALRPSDEGTYECVVLKYEKDAFKREHLAEVTLSVKADFPTPSISDFEIPPSNIRRIICSTSGGFPEPRLAWMEDGEELNAINTTASQDPETELYTVSSKLDFNMTTNRSFVCLIKYGHLRVNQTFNWNTPKQEHFPDNLFPSWAITLISVNGIFVICCLTYCFAPRCRERRRNERLRRESVRPV
- Binding Score: 1

B20: Round 2 CTLA4BP 5x3-c3 (ligand)
chain: VIHMTKEVKEVATLSCGPNVSVEELAQTRIYWQKEKKMVLTMMSGDMNIWPEYKNRTIFDITNNLSIVILALRPSDEGTYECVVLKYEKDAFKREHLAEVTLSVKADFPTPSISDFEIPTSNIRRIICSTSGGFPEPHLSWLENGEELNAINTTVSQDPGTELYTVSSKLDFNMTTNHSFMCLIKYGHLRVNQTFNWNTPKQEHFPDNLLPSWAITLISVNGIFVICCLTHCFAPRCRERRRNERLRRESVCPV
- Binding Score: 1

B24: Round 2 CTLA4BP-5X2-12F (ligand)
chain: B2 chain with M101T, T120P, R124K, L209P, V220A, R232C, K241R, S242R, R245T
- Binding Score: 1

B25: Round 2 CTLA4BP 5x4-a1 (ligand)
chain: B20 chain with M4V, P18H, Y53H, S114T, H178R, M181V, H231Y, C252R
- Binding Score: 0

B26: Round 2 CTLA4BP 5x4-h1 (ligand)
chain: B3 chain with L18H, Y31H, E86K, E95K, P120T, S140F, G150A, V155A, D207N, R245T
- Binding Score: 2

B27: Round 2 CTLA4BP 5x6-f6 (ligand)
chain: B3 chain with L18H, R29P, E86K, S114T, S140F, G150A, V220A, C232R, H252C
- Binding Score: 1

Next, values leading:

- Binding Score: 2
B4: Round 2 CTLA4BP-5x4-1f (ligand)
chain: B2 chain with T114S, S140F, R232C, K241R, S242R, R252C

- Binding Score: 2
B5: Round 2 CTLA4BP-5x5-6e (ligand)
chain: B2 chain with T120P, N152S, P200T, V220A, Y231H, R232C, S242R

- Binding Score: 2
B9: Round 2 CTLA4BP-5x8-1f (ligand)
chain: B2 chain with T120P, T130A, S140F, T165A, K185R, R232C

- Binding Score: 2
B10: Round 2 CTLA4BP-5x4-11d (ligand)
chain: B2 chain with H18L, E88D, M101T, T114S, T120P, T176A, M181V

- Binding Score: 2
B13: Round 2 CTLA4BP-5x9-12c (ligand)
chain: B2 chain with T120P, V155A, R232C

- Binding Score: 1
B16: Round 2 CTLA4BP-5x3-11b (ligand)
chain: B2 chain with H31Y, P74S, M101T, T120P, N152S, H178R, M181V, R232C, K241R

- Binding Score: 2
B17: Round 2 CTLA4BP-5x3-6f (ligand)
chain: B2 chain with H31Y, E35G, K86E, T114S, V155A, V220A, T230A, R232C, R236G

- Binding Score: 2
B21: Round 2 CTLA4BP-5x4-12c (ligand)
chain: B2 chain with T114S, T120P, S140F, V220A, R245T
notes: Full-length clone on transiently or stably transfected 293 cells; The end 288 is the end of the entry as counted; also called R2 CTLA-4BP 5x4-12c; clone 12c

- Binding Score: 2
B22: Round 2 CTLA4BP-5x5-2e (ligand)
chain: B2 chain with H18L, T114S, T120P, T165A, R232C, K241R, S242R, R245T

- Binding Score: 2
B23: Round 2 CTLA4BP-5x6-9d (ligand)
chain: B2 chain with T114S, T176A, M181V, R232C, K241R, S242R

- Binding Score: 2
B28: Round 2 CTLA4BP-5x3-10e (ligand)
chain: B7 chain with K7E, G35E, C53Y, A83V, K86E, T120P, A155V, V220A, R252H
